Experimental data from patent US20250090677A1 (MULTITUDE THERAPEUTICS, published 2025).
Substitutions are numbered along the chain they refer to. Where two headings read alike, the source gives them in different places. Blank lines part the entries; values can stand above or below the binder they belong to.

Assays:
[1] = molecular target: T1, CDH6 on the cell surface of OVCAR-3 cells (human ovarian cancer cells) (human, UniProt P55285 54-790); experiment: flow cytometry (FACS) on OVCAR-3 cells, antibody titration, labelled secondary antibody, MFI
T1 construct: whole, on cells; also called CDH6-positive human ovarian cancer cell line OVCAR-3
T1 sequence (looked up): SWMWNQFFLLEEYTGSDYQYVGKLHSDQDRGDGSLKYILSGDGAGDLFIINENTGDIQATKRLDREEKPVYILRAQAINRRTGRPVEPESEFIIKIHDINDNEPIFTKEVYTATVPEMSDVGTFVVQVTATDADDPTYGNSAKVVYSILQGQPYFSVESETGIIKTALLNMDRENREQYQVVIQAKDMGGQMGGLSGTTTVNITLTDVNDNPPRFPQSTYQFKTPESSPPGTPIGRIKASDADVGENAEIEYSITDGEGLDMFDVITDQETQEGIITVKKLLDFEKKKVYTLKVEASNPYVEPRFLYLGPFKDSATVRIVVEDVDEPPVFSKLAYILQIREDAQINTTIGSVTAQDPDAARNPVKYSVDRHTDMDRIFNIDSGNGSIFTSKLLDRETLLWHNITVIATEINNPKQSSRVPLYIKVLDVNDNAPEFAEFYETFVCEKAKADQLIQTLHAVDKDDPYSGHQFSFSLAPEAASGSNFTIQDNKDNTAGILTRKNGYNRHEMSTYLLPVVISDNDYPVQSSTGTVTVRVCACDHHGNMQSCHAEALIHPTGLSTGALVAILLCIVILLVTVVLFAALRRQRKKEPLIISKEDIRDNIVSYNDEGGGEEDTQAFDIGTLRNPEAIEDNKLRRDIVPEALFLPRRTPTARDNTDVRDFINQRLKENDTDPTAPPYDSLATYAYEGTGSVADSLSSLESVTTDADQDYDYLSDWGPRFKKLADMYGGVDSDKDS

Human CDH6-ECD-His = molecular target: T2, Human CDH6-ECD-His (human, UniProt P55285 54-615); experiment: BLI (Octet), antibody on AHC sensor, antigen 3.13-100 nM, 1:1 model
T2 construct: extracellular domain; Bought protein; also called human CDH6-ECD-His recombinant protein; Human CDH6-EC6D-His; not shown: His tag
T2 sequence (looked up): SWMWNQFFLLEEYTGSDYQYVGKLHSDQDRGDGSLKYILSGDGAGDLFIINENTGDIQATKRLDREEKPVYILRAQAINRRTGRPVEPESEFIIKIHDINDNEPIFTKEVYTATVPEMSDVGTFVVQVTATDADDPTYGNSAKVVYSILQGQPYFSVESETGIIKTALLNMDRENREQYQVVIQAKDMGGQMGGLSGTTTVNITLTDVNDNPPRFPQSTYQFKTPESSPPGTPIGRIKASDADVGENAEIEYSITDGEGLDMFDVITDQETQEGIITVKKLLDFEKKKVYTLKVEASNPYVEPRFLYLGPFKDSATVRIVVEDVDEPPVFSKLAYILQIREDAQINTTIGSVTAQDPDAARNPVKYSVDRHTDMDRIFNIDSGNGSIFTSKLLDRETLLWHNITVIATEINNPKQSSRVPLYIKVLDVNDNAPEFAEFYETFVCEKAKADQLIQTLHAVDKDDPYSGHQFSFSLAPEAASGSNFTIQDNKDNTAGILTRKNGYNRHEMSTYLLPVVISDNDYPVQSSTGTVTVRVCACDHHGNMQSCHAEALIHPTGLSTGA
Method: (§1) Binding affinities of CL069707-H1L1 and Ch069707 were measured using the Octet® system based on Bio-Layer Interferometry (BLI) technique. Antibodies were loaded to AHC (Anti-hIgG Fc Capture) at 100 nM concentration. […] From the six different binding curves obtained from each antigen concentration, binding constants (KD) were calculated based on the 1:1 binding model. CL069707-H1L1 and Ch069707 binds to human CDH6-ECD-His antigen with similar affinity. CL069707-H1L1 binds to human CDH6-ECD-His and cyno monkey CDH6-ECD-His antigens with similar affinity.

cyno monkey CDH6-ECD-His = molecular target: T3, cyno monkey CDH6-ECD-His (cyno monkey, UniProt A0A2K5TW62 54-615); experiment: as above
T3 construct: extracellular domain; Bought protein; also called Cyno CDH6-ECD-His; not shown: His tag
T3 sequence: T2 sequence (looked up) with Y300H, H457R
Method: as §1

[2] = molecular target: T1, CDH6 on the cell surface of OVCAR-3 …; experiment: flow cytometry (FACS) on OVCAR-3 cells, antibody titration, labelled secondary antibody, MFI; remark: listed apart in the source
Method: The binding EC50 of the humanized antibodies on tumor cell were tested as follow. Human ovarian cancer cell line OVCAR-3(purchased from National Collection of Authenticated Cell Cultures) cell culture was maintained in vitro as independent monolayer cultures at 37° C. in an atmosphere of 5% CO₂. The cells were harvested using trypsin-EDTA partial digestion followed by centrifugation at 1000 rpm for 5 minutes. The cell was resuspended in cold PBS and serial dilution of Ch069707 and CL069707-H1L1, CL069707-H1L2, CL069707-H2L1 and CL069707-H2L2 antibodies were added. Ch069707 antibody was a chimeric antibody. The variable regions were the same as those of CL069707, and the constant region was the same as human IgG1 constant regions (SEQ ID NO: 70 and SEQ ID NO: 71). The cell solutions were mixed, incubated at 4° C. and washed with cold PBS prior to addition of secondary antibody conjugates (for detection purposes). After incubation at 4° C., the cells were washed with PBS, and then subjected to flow cytometry (FACS) analysis.

EC50 (read off the curve) [1]: ~4 nM
B1: CL069463-H2L2 (antibody, human IgG1, kappa)
heavy: not shown
light: DIQMTQSPSSLSASVGDRVTITCRASENIYYSLAWYQQKPGKAPKLLIYNANSLKDGVPSRFSGSGSGTDYTMTISSMQPEDFATYYCQQAYDVPPTFGGGTKVEIKRTVAAPSVFIFPPSDEQLKSGTASVVCLLNNFYPREAKVQWKVDNALQSGNSQESVTEQDSKDSTYSLSSTLTLSKADYEKHKVYACEVTHQGLSSPVTKSFNRGEC
notes: Humanized IgG1/kappa

EC50 (read off the curve) [1]: ~3 nM
B2: CL069463-H2L3 (antibody, human IgG1, kappa)
heavy: not shown
light: B1 light with D17E
notes: Humanized IgG1/kappa

Kd (Human CDH6-ECD-His): 2.28 nM
Kd (cyno monkey CDH6-ECD-His): 2.19 nM
EC50 (read off the curve) [2]: ~0.7 nM
B3: Ch069707 (antibody, human IgG1, kappa, V domains shown)
VH: EVHLVESGGGLVQPKGSLKLSCVASGFTFTTYAMNWVRQAPGKGLEWVARIRIKNNNYATYYADSVTDRFTISRDDSQSMLYLQMNNLKTEDTAMYYCVRPDYGNYGLAYWGQGTLVTVSA
VL: EIVLTQSPTTMAASPGEKITITCSASSSISSHYLHWYQQKPGFSPKLLIYRSFYLASGVPLRFTGSGSGTSYSLTIGTMEAEDVATYYCQQDIVPLTFGAGTKLELKR
notes: also called anti-CDH6 chimeric antibody Ch069707
